Data set [1] addresses TSC (BMC-T1 / HO-5812 with SpyCatcherΔN1ΔC2 inserted on the lumenal side, flanked by six residue glycine-serine linkers) (Haliangium ochraceum) (UniProt D0LHE3). The data set is described as follows: calculated from fluorescence intensity of purified shells.
Data set [2] addresses TST (BMC-T1 / HO-5812 with SpyTag inserted on the lumenal side, flanked by six residue glycine-serine linkers) (Haliangium ochraceum). The data set is described as above.
Data set [3] has as its target STprobe (SpyTag-mTurquoise2-TEV protease cleavage site-tetracysteine motif-6xHis permeability probe).

TST (BMC-T1 / HO-5812 with SpyTag inserted on the lumenal side, flanked by six residue glycine-serine linkers) (Haliangium ochraceum), sequence (D0LHE3 whole entry): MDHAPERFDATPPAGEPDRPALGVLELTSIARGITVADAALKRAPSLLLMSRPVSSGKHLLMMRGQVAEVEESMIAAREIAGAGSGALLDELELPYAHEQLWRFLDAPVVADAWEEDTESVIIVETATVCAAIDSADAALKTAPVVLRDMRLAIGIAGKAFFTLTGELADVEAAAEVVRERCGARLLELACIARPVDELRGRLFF

In the case of “STcfp (mTurquoise2 with N-terminal 13 residue SpyTag and C-terminal hexahistidine tag)”, in data set [1], the copies of cfp cargo per shell (copies per shell) is 73. Consider SCcfp (6xHis-SpyCatcher-mTurquoise2), for which the copies of cfp cargo per shell (copies per shell) in data set [2] was 58.

B1: tobacco etch virus protease (TEVp) (protein)
chain: GESLFKGPRDYNPISSTICHLTNESDGHTTSLYGIGFGPFIITNKHLFRRNNGTLLVQSLHGVFKVKNTTTLQQHLIDGRDMIIIRMPKDFPPFPQKLKFREPQREERICLVTTNFQTKSMSSMVSDTSCTFPSSDGIFWKHWIQTKDGQCGSPLVSTRDGFIVGIHSASNFTNTNNYFTSVPKNFMELLTNQEAQQWVSGWRLNADSVLWGGHKVFMSKPEEPFQPVKEATQLMN
On to B1, for which the “fluorescence emission shift (FRET of mTurquoise2 to FlAsH) reverted on TEVp addition, probe in uncapped shells” value in data set [3] was “Addition of the FlAsH reagent to the shells results in a fluorescence emission shift which is reverted upon TEVp addition”.

These data come from US20200102355A1.
